Test results from US20250186597A1, “TARGETED IMMUNE ACTIVATION WITH IL-18 IMMUNOCYTOKINES” (BRIGHT PEAK THERAPEUTICS AG, priority 2023, published 2025).

Experiments:
[1] = system: PD-1 positive (transduced) KG-1 cells; assay: IFN gamma secretion assay in PD-1 transduced KG-1 cells (Example 11); type: cell-based, human
Experimental: The KG-1 cell line was used to generate a PD-1 expressing cell line and furthermore, to measure IFNγ release upon incubation with IL-18 variants and corresponding IL-18 immunocytokines.
PD-1 expressing cell line generation: Briefly, KG-1 cells were transduced using lentiviral particles carrying the human PD-1 gene (PDCD1 NM_005018; Origene, CAT #: RC210364L3V) at a MOI (Multiplicity of Infection) of 30. Spinfection was performed at 1260 g during 90 min at 37° C. in the presence of 5 μg/ml of Polybrene and 10 mM of HEPES in complete culture media (RPMI, 10% FBS, 1% L-Glutamine). […]
IFNγ release was assessed in PD-1 positive (transduced) KG-1 cells, as well as in the parental PD-1 negative cells. […] The lowest concentration assessed was […]. After incubation, IFNγ release was measured using the LEGENDplex custom human mix and match KIT (Biolegend LEGENDplex™ Human IFN-γ Capture Bead B5, 13X #740942, LEGENDplex™ HU Essential Immune Response Panel Detection Abs, #740931, LEGENDplex™ Buffer Set A #740368). […] Fluorescence measurements were done with a Quanteon Flow Cytometer from Acea Biosciences. For analysis, MFI values (median fluorescence intensity) were exported and plotted against concentrations used. The EC50 values (half maximal effective concentration) were calculated based on a variable slope and four parameter analysis using GraphPad PRISM software version 9.

[2] = system: parental PD-1negative NK-92 cells; assay: IL-18BP mediated inhibition of IFN gamma secretion in parental PD-1 negative NK-92 cells (Example 18); type: cell-based, human; conditions: IL-18BP-mediated inhibition of IFNγ secretion, IL-18 analyte 1 nM
Experimental: To characterize the resistance of anti-PD1-IL18 immunocytokines (IC) on PD-1 positive cells, the NK-92 cell line was used to generate a PD-1 expressing cell line and furthermore, to measure the inhibition of IFN[…] release upon incubation with IL-18 variants and ICs in the presence of increasing quantities of human IL-18BP.
On the day of experiment, parental PD-1^negative and PD-1^positive transduced cells were harvested and washed with PBS 1× and resuspended in medium (w/o IL-2) containing 1 ng/ml of recombinant human Interleukin-12 (SinoBiologicals, Cat #CT011-H08H). After counting, cells were seeded at 100 000 cells/well in a 384 well culture plate and incubated at 37° C./5% CO2. When indicated, cells were preincubated with anti-PD-1 antibody LZM-009 at 17 uM during 30 min at 37° C. […]
After 16-20 h incubation at 37° C./5% CO2, 5 μl of supernatant were carefully transferred to a 384 microwell OptiIPlate (Perkin Elmer; Cat #6007270) and Interferon-gamma (IFNγ) levels measured using the Human IFNγ AlphaLISA Assay Kit (Perkin Elmer, Cat #AL217C). […] AlphaLISA signal was then measured on an Enspire plate reader (Perkin Elmer) using 680 and 615 nm as excitation and emission wavelengths respectively. Half maximal inhibitory concentration (IC50) was calculated based on a variable slope, four parameter analysis using GraphPad PRISM software.

EC50 ([1]; IFNγ secretion, PD-1 transduced KG-1): 0.008 nM
PD-1^neg/PD-1^pos EC50 ratio ([1]; KG-1 cells): 1.336
B1: SEQ ID NO: 30: IL-18 polypeptide: E6K, V11I, C38A, K53A, T63A, C76A, C127A (protein)
chain: YFGKLKSKLSIIRNLNDQVLFIDQGNRPLFEDMTDSDARDNAPRTIFIISMYADSQPRGMAVAISVKCEKISTLSAENKIISFKEMNPPDNIKDTKSDIIFFQRSVPGHDNKMQFESSSYEGYFLAAEKERDLFKLILKKEDELGDRSIMFTVQNED
IC50 [2]: 110 nM
